{
  "source": "paper PMC9600339",
  "about": "“Calpain-1: a Novel Antiviral Host Factor Identified in Porcine Small Intestinal Mucus” (mBio, 2022)",
  "molecules": {"B1": {"name": "porcine calpain-1 (enzyme, pig (Sus scrofa), UniProt P35750 1-714, looked up)", "chain": "MAEEVITPVYCTGVSAQVQKLRAKELGLGRHENAIKYLGQDYEQLRAHCLQSGSLFRDEAFPPVPQSLGFKELGPNSSKTYGVKWKRPTELFSNPQFIVDGATRTDICQGALGDCWLLAAIASLTLNDTLLHRVVPHGQSFQNGYAGIFHFQLWQFGEWVDVVVDDLLPTKDGKLVFVHSAQGNEFWSALLEKAYAKVNGSYEALSGGSTSEGFEDFTGGVTEWYELRKAPSDLYSIILKALERGSLLGCSIDISSVLDMEAVTFKKLVKGHAYSVTGAKQVNYQGQMVNLIRMRNPWGEVEWTGAWSDGSSEWNGVDPYQRDQLRVRMEDGEFWMSFRDFLREFTRLEICNLTPDALKSQRVRNWNTTLYEGTWRRGSTAGGCRNYPATFWVNPQFKIRLEETDDPEDDYGGRESGCSFVLALMQKHRRRERRFGRDMETIGFAVYEVPPELVGQPVHLKRDFFLANASRARSEQFINLREVSTRFRLPPGEYVVVPSTFEPNKEGDFVLRFFSEKKAGTQELDDQVQAILPDEQVLSEEEIDENFKALFRQLAGEDMEISVRELRTILNRIISKHKDLRTKGFSLESCRSMVNLMDRDGNGKLGLVEFNILWNRIRNYLSIFRKFDLDKSGSMSAYEMRMAIESAGFKLNKKLFELIITRYSEPDLAVDFDNFVCCLVRLETMFRFFKTLDTDLDGVVTFDLFKWLQLTMFA", "notes": "calpain-1 (catalytic subunit), pig (Sus scrofa); The discussion says in general that calpain-1 is a heterodimer of a catalytic subunit and a regulatory subunit (CAPNS1); also called CAP; p-calpain-1; source: calpain-1 purified from porcine small intestinal mucus fraction III on an antibody column; recombinant p-calpain-1 from HEK 293F, Ni-NTA"}},
  "key": {"[1]": {"target": "porcine calpain-1 (pig (Sus scrofa)) (UniProt P35750)", "experiment": "SPR; calpain-1 immobilised on a CM5 chip by amino coupling (8,860 RU); PEDV S1 protein injected at 100 to 0.8 uM; room temperature; running buffer pH 5.4, 25 mM HEPES, 100 mM NaCl, 3 mM EDTA with 5 mM CaCl2; 1:1 Langmuir model; average KD of triplicates"}, "[2]": {"target": "recombinant S1 protein of PEDV strain CV777 (S1 domain of the spike protein) (porcine epidemic diarrhea virus, …, UniProt Q91AV1 1-1319, Expressed in a prokaryotic system, so not glycosylated. Construct limits are not printed: S1 is taken by convention as ending at residue 789, with the signal peptide 1-25 removed per UniProt.)", "experiment": "SPR; calpain-1 immobilised on a CM5 chip by amino coupling (8,860 RU); PEDV S1 protein injected at 100 to 0.8 uM; room temperature; running buffer pH 5.4, 25 mM HEPES, 100 mM NaCl, 3 mM EDTA with 5 mM CaCl2; 1:1 Langmuir model; average KD of triplicates", "conditions": "both partners purified"}},
  "note": "“And” between values parts separate entries of the source, which are not always exact repeats. Equal entries are not always repeated.",
  "data": [
    {"molecule": "recombinant S1 protein of PEDV strain OH851 (S1 domain of the spike protein) (domain or fragment)", "values": [
      {"measurement": "Kd", "setting": "[1]", "value": 0.787, "unit": "µM"}
    ]},
    {"molecule": "protein S1Δb1: PEDV S1 (CV777) lacking the b1 domain (N297 to A337) (from UniProt Q91AV1 1-1319) (domain or fragment)", "values": [
      {"measurement": "Kd", "setting": "[1]", "value": 198, "unit": "µM"}
    ]},
    {"molecule": "B1", "values": [
      {"measurement": "Kd", "setting": "[2]", "value": "1.07 µM and 2.5 µM"}
    ]}
  ]
}
